Target: human toll-like receptor 4 (TLR4) on HEK293 cells expressing human TLR4-MD2-CD14 (human) (UniProt O00206)
Test: flow cytometry on cells

Chain of UniProt O00206 (O00206 24-839): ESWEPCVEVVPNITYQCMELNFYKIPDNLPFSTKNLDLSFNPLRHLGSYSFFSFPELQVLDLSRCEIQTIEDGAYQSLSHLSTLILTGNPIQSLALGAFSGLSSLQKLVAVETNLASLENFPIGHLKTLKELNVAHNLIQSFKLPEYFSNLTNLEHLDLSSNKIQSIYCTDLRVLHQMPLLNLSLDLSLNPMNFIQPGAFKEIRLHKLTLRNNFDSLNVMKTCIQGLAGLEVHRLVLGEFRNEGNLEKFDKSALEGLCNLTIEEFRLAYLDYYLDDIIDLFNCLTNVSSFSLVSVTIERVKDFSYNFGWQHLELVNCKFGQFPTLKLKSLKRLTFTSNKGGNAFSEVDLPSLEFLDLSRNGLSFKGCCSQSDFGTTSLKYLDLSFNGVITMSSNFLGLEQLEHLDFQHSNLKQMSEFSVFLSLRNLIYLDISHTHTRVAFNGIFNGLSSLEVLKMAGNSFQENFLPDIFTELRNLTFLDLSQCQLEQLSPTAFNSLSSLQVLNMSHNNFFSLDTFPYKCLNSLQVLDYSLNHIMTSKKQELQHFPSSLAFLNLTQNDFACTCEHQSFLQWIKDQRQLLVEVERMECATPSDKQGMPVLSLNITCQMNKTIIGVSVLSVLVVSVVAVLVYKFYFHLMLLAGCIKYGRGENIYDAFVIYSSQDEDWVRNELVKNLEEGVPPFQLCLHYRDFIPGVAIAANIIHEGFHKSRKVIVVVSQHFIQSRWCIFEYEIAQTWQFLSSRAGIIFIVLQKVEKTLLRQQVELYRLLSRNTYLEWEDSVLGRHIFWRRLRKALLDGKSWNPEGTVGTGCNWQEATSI

Row | Substance | TLR4-binding capacity (percent, flow cytometry) [%] | level of fluorescence (percent, flow cytometry) [%]
1 | hEDA-HPVE7-16/18 fusion protein (human extra domain A from fibronectin fused to E7 proteins from HPV16 and HPV18) | 36.9 | 
2 | mEDA-HPVE7-16 fusion protein (extra domain A from murine fibronectin fused to E7 protein from HPV16) | 40.2 | 
3 | hEDA-HPVE7-16 fusion protein (human extra domain A from fibronectin fused to E7 protein from HPV16) |  | 19.5

— paper PMC7319778
